Here are results for one protein from PMC10294844, “Functional Diversity of Homologous Oxidoreductases—Tuning of Substrate Specificity by a FAD-Stacking Residue for Iron Acquisition and Flavodoxin Reduction” (Antioxidants, 2023).

This data set concerns the molecule itself. Kind of data set: crystal structure.

B1: Bacillus cereus heme-degrading monooxygenase IsdG (enzyme)
chain: MIIVTNTAKITKGNGHKLIERFNKVGKVETMPGFLGLEVLLTQNTVDYDEVTISTRWNAKEDFQGWTKSAAFKDAHSHQGGMPEYILDNKIAYYDVKVVRMPMAAAQ
notes: also called Bc IsdG; IsdGapo
On to B1, for which the binding result was “binds”.
